Source: US20210403864A1, “METHODS AND COMPOSITIONS FOR TREATING ACTIVATED G-ALPHA Q MUTANT CANCERS OR MELANOCYTIC MALIGNANCIES” (Memorial Sloan Kettering Cancer Center, priority 2018, published 2021)

Experiments:
[1] = test system: human Mel202 uveal melanoma xenografts; experiment: In vivo anti-tumor activity, xenografts in SCID mice; settings: MEK162 10 mg/kg P.O. b.i.d.; YM-254890 2.5 mg/kg i.p. q.d.; over 20 days; single agents vs vehicle, combination vs vehicle and single agents
Protocol: To evaluate the effect of YM-254890 and binimetinib (MEK162) in vivo, Mel202 uveal melanoma xenografts were established in SCID mice, and the mice were treated with vehicle only, 10 mg/kg MEK162 (P.O., b.i.d.), YM-254890 (2.5 mg/kg i.p., q.d.) or a combination of MEK162 and YM-254890. Tumor volumes were measured over 20 days.

[2] = biological target: GNAQ^R183Q (human GNAQ α-subunit, R183Q mutant) (human) (UniProt P50148); experiment: cell-based or functional assay
[3] = biological target: GNAQ^Q209L (human GNAQ α-subunit, Q209L mutant) (human) (UniProt P50148); experiment: cell-based or functional assay
[4] = biological target: GNAQ^Q209L/P (endogenous, in three human UVM cell lines) (human) (UniProt P50148); experiment: cell-based or functional assay

Chain of GNAQ^R183Q (human GNAQ α-subunit, R183Q mutant) (human) (P50148 whole entry R183Q): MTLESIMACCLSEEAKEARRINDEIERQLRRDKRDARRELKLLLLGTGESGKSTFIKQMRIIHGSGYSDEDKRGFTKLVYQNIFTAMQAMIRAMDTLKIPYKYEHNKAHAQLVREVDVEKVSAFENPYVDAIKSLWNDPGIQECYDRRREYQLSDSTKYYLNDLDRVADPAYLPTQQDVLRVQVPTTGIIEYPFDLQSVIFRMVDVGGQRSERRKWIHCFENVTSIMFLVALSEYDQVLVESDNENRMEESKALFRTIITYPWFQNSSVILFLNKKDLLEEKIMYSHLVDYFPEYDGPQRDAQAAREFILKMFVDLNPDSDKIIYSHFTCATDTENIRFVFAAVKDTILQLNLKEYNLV
Chain of GNAQ^Q209L (human GNAQ α-subunit, Q209L mutant) (human) (P50148 whole entry Q209L): as the sequence (P50148 whole entry R183Q) above, with Q183R, Q209L counted along it

IP1 accumulation after 24-hour treatment with variable doses of YM, transfected HEK293T cells (fold less sensitive) [2] | IP1 accumulation, mutant-transformed melan-a cells, 24-hour treatment (fold less sensitive) [2] | IP1 accumulation, mutant-transformed melan-a cells, 24-hour treatment (fold less sensitive) [3] | IC50 of cell proliferation, human UVM cell lines (CellTiter-glo 2.0, 5 days) [4] [nM] | Molecule | tumor volume [1]
– | – | – | – | Cn1cnc2c(F)c(Nc3ccc(Br)cc3F)c(C(=O)NOCCO)cc21 [MEK162, binimetinib] | moderate reduction
20 | 10 | 10 | 100 | YM-254890 (peptide) | –
